# Assays:
# [1] = tested on: CC1(C)S[C@@H]2[C@H](NC(=O)[C@H](N)c3ccccc3)C(=O)N2[C@H]1C(=O)O; assay: steady-state hydrolysis kinetics (Km) with purified NDM-1; assay type: biochemical, Klebsiella pneumoniae; details: Zn2+ (two zinc ions)
# [2] = tested on: C[C@@H](O)[C@H]1C(=O)N2C(C(=O)O)=C(SCCN=CN)C[C@H]12; assay: as above; assay type: biochemical, Klebsiella pneumoniae; details: Zn2+ (two zinc ions)
# [3] = tested on: C[C@@H](O)[C@H]1C(=O)N2C(C(=O)O)=C(S[C@@H]3CN[C@H](C(=O)N(C)C)C3)[C@H](C)[C@H]12; assay: as above; assay type: biochemical, Klebsiella pneumoniae; details: Zn2+ (two zinc ions) substrate binding site (docking)
# [4] = tested on: CO/N=C(\C(=O)N[C@@H]1C(=O)N2C(C(=O)O)=C(COC(C)=O)CS[C@H]12)c1csc(N)n1; assay: as above; assay type: biochemical, Klebsiella pneumoniae; details: Zn2+ (two zinc ions)
# [5] = target: T1, New Delhi metallo-β-lactamase-1 (NDM-1) (Klebsiella pneumoniae, UniProt C7C422); assay: biochemical
# T1 construct: gene blaNDM-1
# T1 sequence (C7C422 29-270 limits assumed): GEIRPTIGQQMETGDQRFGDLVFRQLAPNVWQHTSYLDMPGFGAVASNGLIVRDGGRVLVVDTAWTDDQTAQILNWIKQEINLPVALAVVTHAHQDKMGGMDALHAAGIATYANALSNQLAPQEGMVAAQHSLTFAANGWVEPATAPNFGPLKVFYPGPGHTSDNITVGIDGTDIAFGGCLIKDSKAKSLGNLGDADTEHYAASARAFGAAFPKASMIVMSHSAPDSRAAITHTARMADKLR
# [6] = target: T1, New Delhi metallo-β-lactamase-1 (NDM-1); assay: steady-state hydrolysis kinetics (Km) with purified NDM-1; assay type: biochemical
compound,measurement,setting,value
New Delhi metallo-β-lactamase-1 (NDM-1) (Klebsiella pneumoniae),Km,[1],99.4 ± 7.6 µM
same,kcat,[1],392 ± 25.7 s⁻¹
same,kcat/Km,[1],3.94e+06 ± 140000 M⁻¹ s⁻¹
same,Km,[2],83.9 ± 6.7 µM
same,kcat,[2],700 ± 18.7 s⁻¹
same,kcat/Km,[2],8.34e+06 ± 640000 M⁻¹ s⁻¹
same,Km,[3],58.3 ± 5.2 µM
same,kcat,[3],301 ± 11.9 s⁻¹
same,kcat/Km,[3],5.17e+06 ± 330000 M⁻¹ s⁻¹
same,Km,[4],61.6 ± 5.8 µM
same,kcat,[4],413 ± 28.1 s⁻¹
same,kcat/Km,[4],6.7e+06 ± 270000 M⁻¹ s⁻¹
"N#CC1=Cc2ccccc2[C@@H]2NN3C(C#N)=Cc4ccccc4[C@@H]3NN12 [MCULE-8777613195-0-12, [3R,14R]-1,2,12,13-tetrazapentacyclo [12.8.0.03,12.04,9.015,20]docosa-4,6,8,10,15,17,19,21-octaene-11,22-dicarbonitrile]",IC50,[5],54.2 ± 6.3 µM
O=C(Cc1cccs1)N[C@@H]1C(=O)N2C(C(=O)O)=C(/C=C/c3ccc([N+](=O)[O-])cc3[N+](=O)[O-])CS[C@H]12 [nitrocefin],Km,[6],27.1 ± 2.1 µM

# From PMC9504514, “Identification of a Potential Inhibitor (MCULE-8777613195-0-12) of New Delhi Metallo-β-Lactamase-1 (NDM-1) Using In Silico and In Vitro Approaches” (Molecules, 2022)
